{
  "source": "paper PMC11339409",
  "key": {"[1]": {"biological_target": "LUJV glycoprotein-1 (GP1) (Lujo virus (LUJV))", "assay": "cryo-EM structure"}, "[2]": {"biological_target": "LUJV glycoprotein-2 (GP2) (Lujo virus (LUJV))", "assay": "cryo-EM structure"}},
  "data": [
    {"substance": "LUJV glycoprotein-1 (GP1) (domain or fragment)", "values": [
      {"measurement": "stoichiometry N", "setting": "[1]", "value": 3}
    ]},
    {"substance": "LUJV glycoprotein-2 (GP2) (domain or fragment)", "values": [
      {"measurement": "stoichiometry N", "setting": "[2]", "value": 3}
    ]}
  ]
}
